The target in the data set is T1, EcoExo I C98S/C306S/C330T (ONLD0366) C98S/C306S/C330T (Escherichia coli) (UniProt P04995).
T1 sequence: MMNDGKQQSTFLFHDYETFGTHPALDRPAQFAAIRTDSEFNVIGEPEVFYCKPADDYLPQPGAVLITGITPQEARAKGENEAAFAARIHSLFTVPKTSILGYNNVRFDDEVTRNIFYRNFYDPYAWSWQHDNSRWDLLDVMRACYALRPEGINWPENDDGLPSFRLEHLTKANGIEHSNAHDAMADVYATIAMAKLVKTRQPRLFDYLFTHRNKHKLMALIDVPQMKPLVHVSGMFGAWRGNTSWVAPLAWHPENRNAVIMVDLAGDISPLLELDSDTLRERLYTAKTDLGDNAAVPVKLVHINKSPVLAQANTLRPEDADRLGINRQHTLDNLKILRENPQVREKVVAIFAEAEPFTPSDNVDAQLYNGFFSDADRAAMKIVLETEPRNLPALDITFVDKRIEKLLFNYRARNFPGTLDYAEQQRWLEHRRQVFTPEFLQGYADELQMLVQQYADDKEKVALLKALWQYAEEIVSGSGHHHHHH
Kind of data set: cleavage_in_vitro. Conditions: fluorescein-dT at position 15, BHQ1 on dT at position 1; relative activity of mutants stated higher than wild type.

A value given as a limit tells only on which side of the number the result lay.

For the substance Exo I assay DNA template, the activity (relative to wild type) is above 1.

The values above are taken from patent publication US20120100530.
